{
  "source": "paper doi:10.1101/2023.10.08.561411",
  "about": "“Semi-synthetic nanobody-ligand conjugates exhibit tunable signaling properties and enhanced transcriptional outputs at neurokinin receptor-1” (bioRxiv, 2023)",
  "key": {"[1]": {"molecular_target": "epitope-tagged neurokinin-1 receptor (NK1R) with three epitope tags (alfa, 6e, BC2) inserted into the extracellular N-terminus (UniProt P25103)"}, "[2]": {"molecular_target": "epitope-tagged neurokinin-1 receptor (NK1R) with three epitope tags (alfa, 6e, BC2) inserted into the extracellular N-terminus (UniProt P25103)", "remark": "listed apart in the source"}, "[3]": {"molecular_target": "epitope-tagged neurokinin-1 receptor (NK1R) with three epitope tags (alfa, 6e, BC2) inserted into the extracellular N-terminus (UniProt P25103)", "remark": "listed apart in the source"}, "[4]": {"molecular_target": "epitope-tagged neurokinin-1 receptor (NK1R) with three epitope tags (alfa, 6e, BC2) inserted into the extracellular N-terminus (UniProt P25103)", "remark": "listed apart in the source"}, "[5]": {"molecular_target": "T1, neurokinin-1 receptor wild-type, lacking epitope tags (Homo sapiens, UniProt P25103)", "T1 construct": "also called NK1R WT; NK1R wild-type; source: HEK293, stably transfected clonal line, on live cells", "T1 sequence (P25103 whole entry)": "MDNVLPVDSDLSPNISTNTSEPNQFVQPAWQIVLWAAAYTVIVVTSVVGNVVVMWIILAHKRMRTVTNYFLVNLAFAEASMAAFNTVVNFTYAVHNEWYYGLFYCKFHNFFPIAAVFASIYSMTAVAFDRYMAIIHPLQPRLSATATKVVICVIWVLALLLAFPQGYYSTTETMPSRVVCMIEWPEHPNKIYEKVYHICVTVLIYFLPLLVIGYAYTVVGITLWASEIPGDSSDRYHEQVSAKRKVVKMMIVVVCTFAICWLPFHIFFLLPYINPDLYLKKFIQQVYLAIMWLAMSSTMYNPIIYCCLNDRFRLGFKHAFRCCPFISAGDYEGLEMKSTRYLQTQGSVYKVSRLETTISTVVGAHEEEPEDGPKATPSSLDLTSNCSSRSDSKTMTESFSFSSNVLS", "assay": "flow cytometry on cells; live HEK293 cells expressing the receptor, on ice 20 min in PBS with 2% BSA with biotin-functionalized nanobodies (0.1 pM – 1 μM); detected with APC-streptavidin; median fluorescence intensity", "conditions": "one partner purified"}},
  "note": "Ends that are not written are not given here.",
  "data": [
    {"molecule": "NbGFP-NKA conjugate (negative control)", "values": [
      {"measurement": "Gq activation (TRUPATH BRET), full efficacy; reduction in potency (EC50) relative to the comparator peptide", "setting": "[1]", "result": "< 6", "unit": "fold"}
    ]},
    {"molecule": "SP_(6–11), truncated version of Substance P (peptide)", "values": [
      {"measurement": "signaling through the Gq pathway (TRUPATH BRET), EC50", "setting": "[2]", "result": 27.5, "unit": "nM"}
    ]},
    {"molecule": "NbGFP-SP_(6–11) conjugate (negative control)", "values": [
      {"measurement": "Gq activation (TRUPATH BRET), full efficacy; reduction in potency (EC50) relative to the comparator peptide G3SP (6–11)", "setting": "[1]", "result": "> 60", "unit": "fold"},
      {"measurement": "Gq activation (TRUPATH BRET); difference in EC50 relative to SP (6–11)", "setting": "[1]", "result": "< 4", "unit": "fold"}
    ]},
    {"molecule": "Nb_(alfa)-SP_(6–11) conjugate", "values": [
      {"measurement": "Gq activation (TRUPATH BRET), full efficacy; reduction in potency (EC50) relative to the comparator peptide G3SP (6–11)", "setting": "[1]", "result": "> 60", "unit": "fold"},
      {"measurement": "Gq activation (TRUPATH BRET); difference in EC50 relative to SP (6–11)", "setting": "[1]", "result": "< 4", "unit": "fold"}
    ]},
    {"molecule": "Nb_(alfa)-NKA conjugate", "values": [
      {"measurement": "Gs-mediated transcription (luciferase reporter, 35 nM, 17 hours), fold against NKA", "setting": "[3]", "result": "> 5", "unit": "fold"},
      {"measurement": "Gq-mediated transcriptional output (luciferase reporter, 35 nM, 17 hours), fold against G3NKA", "setting": "[4]", "result": "> 2", "unit": "fold"},
      {"measurement": "Gq activation (TRUPATH BRET), full efficacy; reduction in potency (EC50) relative to the comparator peptide", "setting": "[1]", "result": "< 6", "unit": "fold"}
    ]},
    {"molecule": "GGGQFFGLM-NH2", "note": "[G3SP_(6–11), SP_(6–11) with an N-terminal triglycine extension]", "values": [
      {"measurement": "signaling through the Gq pathway (TRUPATH BRET), EC50", "setting": "[2]", "result": 0.3, "unit": "nM"}
    ]},
    {"molecule": "NbGFP, biotin-labeled (negative control nanobody that targets GFP) (VHH, nanobody NbGFP against GFP; sortase A recognition motif at the C-terminus (LPETGG in the methods); if by sortagging, the His tag would be lost; source: E. coli BL21(DE3), purified (nickel-NTA, size exclusion chromatography)) VHH: QVQLQESGGALVQPGGSLRLSCAASGFPVNRYSMRWYRQAPGKEREWVAGMSSAGDRSSYEDSVKGRFTISRDDARNTVYLQMNSLKPEDTAVYYCNVNVGFEYWGQGTQVTVSS", "values": [
      {"measurement": "binding result", "setting": "[5]", "result": "no binding (tested: 1 μM)"}
    ]},
    {"molecule": "Nb_(alfa), biotin-labeled (VHH, sortase A recognition motif at the C-terminus (LPETGG in the methods); if by sortagging, the His tag would be lost; source: E. coli BL21(DE3), purified (nickel-NTA, size exclusion chromatography)) VHH: EVQLQESGGGLVQPGGSLRLSCTASGVTISALNAMAMGWYRQAPGERRVMVAAVSERGNAMYRESVQGRFTVTRDFTNKMVSLQMDNLKPEDTAVYYCHVLEDRVDSFHDYWGQGTQVTVSS", "values": [
      {"measurement": "binding result", "setting": "[5]", "result": "no binding (tested: 1 μM)"}
    ]},
    {"molecule": "Nb6e, biotin-labeled (VHH, sortase A recognition motif at the C-terminus (LPETGG in the methods); if by sortagging, the His tag would be lost; source: E. coli BL21(DE3), purified (nickel-NTA, size exclusion chromatography)) VHH: QVQLQESGGGLVQPGGSLRLSCAASGFVFENSAMAWYRQAPGKERELIAVIGTTFIKLAESVKGRFTISRDNAKSTVYLQMNNLKPEDTAVYYCSKSGAYWGQGTQVTVSS", "values": [
      {"measurement": "binding result", "setting": "[5]", "result": "no binding (tested: 1 μM)"}
    ]},
    {"molecule": "NbBC2, biotin-labeled (VHH, sortase A recognition motif at the C-terminus (LPETGG in the methods); if by sortagging, the His tag would be lost; source: E. coli BL21(DE3), purified (nickel-NTA, size exclusion chromatography)) VHH: QVQLVESGGGLVQPGGSLTLSCTASGFTLDHYDIGWFRQAPGKEREGVSCINNSDDDTYYADSVKGRFTIFMNNAKDTVYLQMNSLKPEDTAIYYCAEARGCKRGRYEYDFWGQGTQVTVSS", "values": [
      {"measurement": "binding result", "setting": "[5]", "result": "no binding (tested: 1 μM)"}
    ]}
  ]
}
